Experimental data taken from paper PMC6254361, “The properties of Msh2–Msh6 ATP binding mutants suggest a signal amplification mechanism in DNA mismatch repair” (The Journal of Biological Chemistry, 2018).

What was measured:
[1] = molecular target: T1, S. cerevisiae Msh2–Msh6 (WT) (S. cerevisiae, UniProt P25847 1-964; Q03834 1-1242); assay: SPR; Biacore T100; 236-bp GT mispair DNA held by biotin-streptavidin, other end blocked by lacO-LacI; 20 nM Msh2–Msh6, 250 μM ATP, 30 nM LacI for 100 s, then the same plus 40 nM Mlh1–Pms1 for 300 s; recruitment read as the increase in RU over steady-state Msh2–Msh6; 25 mM Tris pH 8, 4 mM MgCl2, 110 mM NaCl, 0.01% Igepal, 2 mM DTT, 2% glycerol; 10 °C, 20 μl/min; settings: both partners purified
T1 construct: Msh2, S. cerevisiae, wild type; Msh6, S. cerevisiae, wild type; Heterodimer; also called WT Msh2–Msh6
T1 sequence (P25847 whole entry, chain 1 of 2): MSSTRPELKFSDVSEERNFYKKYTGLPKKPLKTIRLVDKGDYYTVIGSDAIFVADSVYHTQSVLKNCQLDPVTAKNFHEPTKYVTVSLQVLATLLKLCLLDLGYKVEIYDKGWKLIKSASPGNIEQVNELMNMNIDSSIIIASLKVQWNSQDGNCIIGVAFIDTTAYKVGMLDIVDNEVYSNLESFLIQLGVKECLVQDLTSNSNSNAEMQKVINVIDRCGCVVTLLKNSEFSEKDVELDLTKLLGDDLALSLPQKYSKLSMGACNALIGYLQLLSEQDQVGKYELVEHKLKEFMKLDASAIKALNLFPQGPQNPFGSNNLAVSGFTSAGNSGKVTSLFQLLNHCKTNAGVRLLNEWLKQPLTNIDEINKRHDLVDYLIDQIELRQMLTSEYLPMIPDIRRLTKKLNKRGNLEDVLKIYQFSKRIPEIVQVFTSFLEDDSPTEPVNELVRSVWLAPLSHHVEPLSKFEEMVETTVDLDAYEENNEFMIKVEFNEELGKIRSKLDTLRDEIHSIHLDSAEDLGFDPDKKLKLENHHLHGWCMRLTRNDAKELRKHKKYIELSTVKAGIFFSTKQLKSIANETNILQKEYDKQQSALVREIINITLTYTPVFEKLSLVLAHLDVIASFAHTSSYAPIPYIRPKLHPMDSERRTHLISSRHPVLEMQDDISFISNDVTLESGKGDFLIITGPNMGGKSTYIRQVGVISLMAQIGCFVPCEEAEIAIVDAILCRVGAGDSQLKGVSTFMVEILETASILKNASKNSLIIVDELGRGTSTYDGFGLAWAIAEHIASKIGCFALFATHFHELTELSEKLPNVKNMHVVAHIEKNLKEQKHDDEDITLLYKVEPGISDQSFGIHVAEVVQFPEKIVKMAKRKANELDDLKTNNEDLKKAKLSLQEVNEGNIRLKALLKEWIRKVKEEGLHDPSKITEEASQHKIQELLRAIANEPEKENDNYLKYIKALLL
T1 sequence (Q03834 whole entry, chain 2 of 2): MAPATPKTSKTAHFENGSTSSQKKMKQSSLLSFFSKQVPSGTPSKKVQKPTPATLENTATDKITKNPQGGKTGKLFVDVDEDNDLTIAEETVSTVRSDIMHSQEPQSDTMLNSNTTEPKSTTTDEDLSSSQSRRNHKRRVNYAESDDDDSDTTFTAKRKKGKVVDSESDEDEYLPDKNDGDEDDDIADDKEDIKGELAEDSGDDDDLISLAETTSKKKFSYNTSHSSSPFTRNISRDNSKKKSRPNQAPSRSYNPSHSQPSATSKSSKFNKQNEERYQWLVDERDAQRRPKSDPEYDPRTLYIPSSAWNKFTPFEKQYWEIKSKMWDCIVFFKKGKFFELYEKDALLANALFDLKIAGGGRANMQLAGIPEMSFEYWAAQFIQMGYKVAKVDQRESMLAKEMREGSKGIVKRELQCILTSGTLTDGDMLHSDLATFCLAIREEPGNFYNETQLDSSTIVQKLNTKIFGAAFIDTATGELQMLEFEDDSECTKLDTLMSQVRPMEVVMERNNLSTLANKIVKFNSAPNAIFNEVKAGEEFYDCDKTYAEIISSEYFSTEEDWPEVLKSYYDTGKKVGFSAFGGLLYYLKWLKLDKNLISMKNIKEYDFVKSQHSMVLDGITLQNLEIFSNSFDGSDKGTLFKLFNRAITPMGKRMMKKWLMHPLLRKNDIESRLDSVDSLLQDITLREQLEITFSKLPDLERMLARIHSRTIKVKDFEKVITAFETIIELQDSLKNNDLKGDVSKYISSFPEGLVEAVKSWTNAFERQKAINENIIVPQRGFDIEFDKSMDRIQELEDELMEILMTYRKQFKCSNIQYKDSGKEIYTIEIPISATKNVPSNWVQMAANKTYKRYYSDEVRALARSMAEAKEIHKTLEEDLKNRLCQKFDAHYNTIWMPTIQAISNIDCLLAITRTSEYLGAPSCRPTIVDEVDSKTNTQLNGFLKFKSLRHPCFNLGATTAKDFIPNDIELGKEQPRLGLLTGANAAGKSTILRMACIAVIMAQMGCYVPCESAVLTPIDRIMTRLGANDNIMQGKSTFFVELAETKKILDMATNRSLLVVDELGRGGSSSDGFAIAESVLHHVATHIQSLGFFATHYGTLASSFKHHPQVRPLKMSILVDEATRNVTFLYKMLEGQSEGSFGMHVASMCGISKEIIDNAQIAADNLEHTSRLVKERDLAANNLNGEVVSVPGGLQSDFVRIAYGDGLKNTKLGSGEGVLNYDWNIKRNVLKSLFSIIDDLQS

Msh2–Msh6(K988A) = molecular target: T2, Msh2–Msh6(K988A) (S. cerevisiae, UniProt P25847 1-964; Q03834 1-1242, K988A); assay: as above; settings: both partners purified
T2 construct: Msh2, S. cerevisiae, wild type; Msh6, S. cerevisiae, Walker A lysine mutant; also called Walker A Lys mutant Msh2–Msh6 complex
T2 sequence (P25847 whole entry, chain 1 of 2): as the sequence (P25847 whole entry, chain 1 of 2) above
T2 sequence (Q03834 whole entry K988A, chain 2 of 2): as the sequence (Q03834 whole entry, chain 2 of 2) above, with K988A counted along it

Msh2–Msh6(K988R) = molecular target: T3, Msh2–Msh6(K988R) (S. cerevisiae, UniProt P25847 1-964; Q03834 1-1242, K988R); assay: as above; settings: both partners purified
T3 construct: Msh2, S. cerevisiae, wild type; Msh6, S. cerevisiae, Walker A lysine mutant; also called Walker A Lys mutant Msh2–Msh6 complex
T3 sequence (P25847 whole entry, chain 1 of 2): as the sequence (P25847 whole entry, chain 1 of 2) above
T3 sequence (Q03834 whole entry K988R, chain 2 of 2): as the sequence (Q03834 whole entry, chain 2 of 2) above, with K988R counted along it

Msh2–Msh6(K988M) = molecular target: T4, Msh2–Msh6(K988M) (S. cerevisiae, UniProt P25847 1-964; Q03834 1-1242, K988M); assay: as above; settings: both partners purified
T4 construct: Msh2, S. cerevisiae, wild type; Msh6, S. cerevisiae, Walker A lysine mutant; also called Walker A Lys mutant Msh2–Msh6 complex; source: purified
T4 sequence (P25847 whole entry, chain 1 of 2): as the sequence (P25847 whole entry, chain 1 of 2) above
T4 sequence (Q03834 whole entry K988M, chain 2 of 2): as the sequence (Q03834 whole entry, chain 2 of 2) above, with K988M counted along it

Msh2(K694A)–Msh6 = Msh2(K694A)–Msh6 (S. cerevisiae, UniProt P25847 1-964; Q03834 1-1242, K694A); assay: cell-based or functional assay
Chain of Msh2(K694A)–Msh6 (P25847 whole entry K694A, chain 1 of 2): as the sequence (P25847 whole entry, chain 1 of 2) above, with K694A counted along it
Chain of Msh2(K694A)–Msh6 (Q03834 whole entry, chain 2 of 2): as the sequence (Q03834 whole entry, chain 2 of 2) above

Msh2(K694M)–Msh6 = Msh2(K694M)–Msh6 (S. cerevisiae, UniProt P25847 1-964; Q03834 1-1242, K694M); assay: cell-based or functional assay
Chain of Msh2(K694M)–Msh6 (P25847 whole entry K694M, chain 1 of 2): as the sequence (P25847 whole entry, chain 1 of 2) above, with K694M counted along it
Chain of Msh2(K694M)–Msh6 (Q03834 whole entry, chain 2 of 2): as the sequence (Q03834 whole entry, chain 2 of 2) above

Msh2(K694R)–Msh6 = Msh2(K694R)–Msh6 (S. cerevisiae, UniProt P25847 1-964; Q03834 1-1242, K694R); assay: cell-based or functional assay
Chain of Msh2(K694R)–Msh6 (P25847 whole entry K694R, chain 1 of 2): as the sequence (P25847 whole entry, chain 1 of 2) above, with K694R counted along it
Chain of Msh2(K694R)–Msh6 (Q03834 whole entry, chain 2 of 2): as the sequence (Q03834 whole entry, chain 2 of 2) above

B1: S. cerevisiae Mlh1–Pms1 (complex)
chain 1: MSLRIKALDASVVNKIAAGEIIISPVNALKEMMENSIDANATMIDILVKEGGIKVLQITDNGSGINKADLPILCERFTTSKLQKFEDLSQIQTYGFRGEALASISHVARVTVTTKVKEDRCAWRVSYAEGKMLESPKPVAGKDGTTILVEDLFFNIPSRLRALRSHNDEYSKILDVVGRYAIHSKDIGFSCKKFGDSNYSLSVKPSYTVQDRIRTVFNKSVASNLITFHISKVEDLNLESVDGKVCNLNFISKKSISPIFFINNRLVTCDLLRRALNSVYSNYLPKGNRPFIYLGIVIDPAAVDVNVHPTKREVRFLSQDEIIEKIANQLHAELSAIDTSRTFKASSISTNKPESLIPFNDTIESDRNRKSLRQAQVVENSYTTANSQLRKAKRQENKLVRIDASQAKITSFLSSSQQFNFEGSSTKRQLSEPKVTNVSHSQEAEKLTLNESEQPRDANTINDNDLKDQPKKKQKLGDYKVPSIADDEKNALPISKDGYIRVPKERVNVNLTSIKKLREKVDDSIHRELTDIFANLNYVGVVDEERRLAAIQHDLKLFLIDYGSVCYELFYQIGLTDFANFGKINLQSTNVSDDIVLYNLLSEFDELNDDASKEKIISKIWDMSSMLNEYYSIELVNDGLDNDLKSVKLKSLPLLLKGYIPSLVKLPFFIYRLGKEVDWEDEQECLDGILREIALLYIPDMVPKVDTSDASLSEDEKAQFINRKEHISSLLEHVLFPCIKRRFLAPRHILKDVVEIANLPDLYKVFERC
chain 2: MTQIHQINDIDVHRITSGQVITDLTTAVKELVDNSIDANANQIEIIFKDYGLESIECSDNGDGIDPSNYEFLALKHYTSKIAKFQDVAKVQTLGFRGEALSSLCGIAKLSVITTTSPPKADKLEYDMVGHITSKTTTSRNKGTTVLVSQLFHNLPVRQKEFSKTFKRQFTKCLTVIQGYAIINAAIKFSVWNITPKGKKNLILSTMRNSSMRKNISSVFGAGGMRGLEEVDLVLDLNPFKNRMLGKYTDDPDFLDLDYKIRVKGYISQNSFGCGRNSKDRQFIYVNKRPVEYSTLLKCCNEVYKTFNNVQFPAVFLNLELPMSLIDVNVTPDKRVILLHNERAVIDIFKTTLSDYYNRQELALPKRMCSQSEQQAQKRLKTEVFDDRSTTHESDNENYHTARSESNQSNHAHFNSTTGVIDKSNGTELTSVMDGNYTNVTDVIGSECEVSVDSSVVLDEGNSSTPTKKLPSIKTDSQNLSDLNLNNFSNPEFQNITSPDKARSLEKVVEEPVYFDIDGEKFQEKAVLSQADGLVFVDNECHEHTNDCCHQERRGSTDTEQDDEADSIYAEIEPVEINVRTPLKNSRKSISKDNYRSLSDGLTHRKFEDEILEYNLSTKNFKEISKNGKQMSSIISKRKSEAQENIIKNKDELEDFEQGEKYLTLTVSKNDFKKMEVVGQFNLGFIIVTRKVDNKYDLFIVDQHASDEKYNFETLQAVTVFKSQKLIIPQPVELSVIDELVVLDNLPVFEKNGFKLKIDEEEEFGSRVKLLSLPTSKQTLFDLGDFNELIHLIKEDGGLRRDNIRCSKIRSMFAMRACRSSIMIGKPLNKKTMTRVVHNLSELDKPWNCPHGRPTMRHLMELRDWSSFSKDYEI
notes: Mlh1, S. cerevisiae; Pms1, S. cerevisiae; also called MMR endonuclease Mlh1–Pms1
- stoichiometry N [1]: 1.07 Mlh1–Pms1 per Msh2–Msh6
- binding result (Msh2–Msh6(K988A)): binds
- binding result (Msh2–Msh6(K988R)): binds
- binding result (Msh2–Msh6(K988M)): binds
- Mlh1–Pms1 endonuclease nicking of a 3′ nicked mispaired DNA promoted by the Msh2–Msh6 variant (with PCNA, RFC-Δ1N), 0.1 and 2.5 mM ATP, relative to WT Msh2–Msh6 (Msh2(K694A)–Msh6): ~50 % of the nicking of WT Msh2–Msh6
- Mlh1–Pms1 endonuclease nicking of a 3′ nicked mispaired DNA promoted by the Msh2–Msh6 variant (with PCNA, RFC-Δ1N), 0.1 and 2.5 mM ATP, relative to WT Msh2–Msh6 (Msh2(K694M)–Msh6): ~50 % of the nicking of WT Msh2–Msh6
- Mlh1–Pms1 endonuclease nicking of a 3′ nicked mispaired DNA promoted by the Msh2–Msh6 variant (with PCNA, RFC-Δ1N), 0.1 and 2.5 mM ATP, relative to WT Msh2–Msh6 (Msh2(K694R)–Msh6): ~50 % of the nicking of WT Msh2–Msh6
